Changes are numbered by the printed parent chain.
T1: Human MAdCAM (human, UniProt Q13477 19-317, limits assumed)
T1 construct: also called huMAdCAM; human MAdCAM-1
T1 sequence (looked up): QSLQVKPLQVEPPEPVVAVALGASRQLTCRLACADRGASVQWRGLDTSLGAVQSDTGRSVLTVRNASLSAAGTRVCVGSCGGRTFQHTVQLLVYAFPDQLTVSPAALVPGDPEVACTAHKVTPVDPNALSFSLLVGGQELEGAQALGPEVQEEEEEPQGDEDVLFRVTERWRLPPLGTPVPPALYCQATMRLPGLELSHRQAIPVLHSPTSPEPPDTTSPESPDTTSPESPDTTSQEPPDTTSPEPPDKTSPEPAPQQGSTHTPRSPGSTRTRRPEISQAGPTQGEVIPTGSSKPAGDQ

B1: MIAB133 (antibody, human IgG1, kappa)
heavy: EVQLLESGGGLVQPGGSLRLSCAASGFTFSSFWMHWVRQAPGKGLEWISYISGDSGYTNYADSVKGRFTISRDNSKNTLYLQMNSLRAEDTAVYYCARDRPYYYYMDVWGKGTTVTVSSASTKGPSVFPLAPSSKSTSGGTAALGCLVKDYFPEPVTVSWNSGALTSGVHTFPAVLQSSGLYSLSSVVTVPSSSLGTQTYICNVNHKPSNTKVDKKVEPKSCDKTHTCPPCPAPEAAGAPSVFLFPPKPKDTLMISRTPEVTCVVVDVSHEDPEVKFNWYVDGVEVHNAKTKPREEQYNSTYRVVSVLTVLHQDWLNGKEYKCKVSNKALPAPIEKTISKAKGQPREPQVYTLPPSREEMTKNQVSLTCLVKGFYPSDIAVEWESNGQPENNYKTTPPVLDSDGSFFLYSKLTVDKSRWQQGNVFSCSVMHEALHNHYTQKSLSLSPGGGGGSAPTSSSTKKTQLQLEHLLLDLQMILNGINNYKNPKLTRMLTFKFYMPKKATELKHLQCLEEELKPLEEALNLAPSKNFHLRPRDLISDINVIVLELKGSETTFMCEYADETATIVEFINRWITFSQSIISTLT
light: DIQMTQSPSSLSASVGDRVTITCRASQSVSRSLAWYQQKPGKAPKLLIYAASSLQSGVPSRFSGSGSGTDFTLTISSLQPEDFATYYCQQYKSYPVTFGQGTKVEIKRTVAAPSVFIFPPSDEQLKSGTASVVCLLNNFYPREAKVQWKVDNALQSGNSQESVTEQDSKDSTYSLSSTLTLSKADYEKHKVYACEVTHQGLSSPVTKSFNRGEC
notes: also called MIAB133-001
B2: MIAB147 (antibody, human IgG1, kappa)
heavy: B1 heavy with S31D
light: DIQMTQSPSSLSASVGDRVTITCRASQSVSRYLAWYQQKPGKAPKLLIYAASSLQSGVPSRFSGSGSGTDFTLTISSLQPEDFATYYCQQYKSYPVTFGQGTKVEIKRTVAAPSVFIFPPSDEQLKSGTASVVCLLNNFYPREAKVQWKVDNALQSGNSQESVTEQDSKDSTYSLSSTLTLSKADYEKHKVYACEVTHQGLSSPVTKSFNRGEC
notes: also called MIAB147-001
B3: MIAB137 (antibody, human IgG1, kappa)
heavy: B1 heavy with S31D, I48V, Y50A, D54S, S55G, Y57S, N59Y
light: B1 light
notes: HCDR2 germlined
B4: MIAB149 (antibody, human IgG1, kappa)
heavy: B1 heavy with S31D
light: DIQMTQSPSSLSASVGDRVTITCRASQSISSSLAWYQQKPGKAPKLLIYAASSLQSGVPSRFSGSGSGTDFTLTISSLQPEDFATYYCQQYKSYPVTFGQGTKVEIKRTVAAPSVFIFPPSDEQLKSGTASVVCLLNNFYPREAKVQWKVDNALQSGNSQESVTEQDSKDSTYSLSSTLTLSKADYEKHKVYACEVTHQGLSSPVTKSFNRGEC
notes: also called MIAB149-001
B5: MIAB183 (antibody, human IgG1, kappa)
heavy: B1 heavy with F32Y, I48V, Y50A, D54S, S55G, Y57S, N59Y
light: B1 light with R31S
notes: also called MIAB183-001
B6: MIAB136 (antibody, human IgG1, kappa)
heavy: B1 heavy with F32Y, W33A, H35S
light: B1 light
notes: HCDR1 germlined
B7: MIAB182 (antibody, human IgG1, kappa)
heavy: B1 heavy with F32Y, I48V, Y50A, D54S, S55G, Y57S, N59Y
light: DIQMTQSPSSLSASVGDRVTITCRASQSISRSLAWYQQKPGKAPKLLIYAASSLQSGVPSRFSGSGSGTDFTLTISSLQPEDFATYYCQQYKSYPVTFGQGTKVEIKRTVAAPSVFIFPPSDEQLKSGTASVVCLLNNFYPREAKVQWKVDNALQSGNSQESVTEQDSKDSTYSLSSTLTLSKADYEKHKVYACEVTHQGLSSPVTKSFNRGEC
notes: also called MIAB182-001
B8: MIAB145 (antibody, human IgG1, kappa)
heavy: B1 heavy with S31D
light: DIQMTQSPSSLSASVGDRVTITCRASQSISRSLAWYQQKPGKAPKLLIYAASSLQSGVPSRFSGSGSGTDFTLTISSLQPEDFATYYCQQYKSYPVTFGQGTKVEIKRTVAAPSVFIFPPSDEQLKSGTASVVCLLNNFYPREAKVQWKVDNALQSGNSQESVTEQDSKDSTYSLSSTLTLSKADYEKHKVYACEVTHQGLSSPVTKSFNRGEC
notes: also called MIAB145-001
B9: MIAB184 (antibody, human IgG1, kappa)
heavy: B1 heavy with F32Y, I48V, Y50A, D54S, S55G, Y57S, N59Y
light: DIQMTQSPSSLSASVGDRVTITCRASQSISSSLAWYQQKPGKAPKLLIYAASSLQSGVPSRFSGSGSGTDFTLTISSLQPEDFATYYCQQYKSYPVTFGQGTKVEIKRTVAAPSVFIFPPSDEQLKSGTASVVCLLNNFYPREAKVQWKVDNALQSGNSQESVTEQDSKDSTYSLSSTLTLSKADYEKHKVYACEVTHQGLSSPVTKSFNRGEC
notes: also called MIAB184-001
B10: MIAB174 (antibody, human IgG1, kappa)
heavy: B1 heavy with S31D, F32Y
light: B1 light
notes: also called MIAB174-001
B11: MIAB175 (antibody, human IgG1, kappa)
heavy: B1 heavy with F32Y
light: B1 light
notes: also called MIAB175-001
B12: MIAB177 (antibody, human IgG1, kappa)
heavy: B1 heavy with S31D, I48V, Y50A, D54S, S55G, Y57S, N59Y
light: B1 light
notes: also called MIAB177-001
B13: MIAB178 (antibody, human IgG1, kappa)
heavy: B1 heavy with F32Y, Y50A, D54S, Y57S, N59Y
light: B1 light
notes: also called MIAB178-001
B14: MIAB146 (antibody, human IgG1, kappa)
heavy: B1 heavy with S31D
light: B1 light with R31S
notes: also called MIAB146-001
B15: PMAB21 (bispecific antibody, human IgG1, kappa)
heavy: EVQLLESGGGLVQPGGSLRLSCAASGFTFSNSDMSWVRQAPGKGLEWVSGITISGGSTYYADSVKGRFTISRDNSKNTLYLQMNSLRAEDTAVYYCARGRGGSGWLDYWGQGTLVTVSSASTKGPSVFPLAPSSKSTSGGTAALGCLVKDYFPEPVTVSWNSGALTSGVHTFPAVLQSSGLYSLSSVVTVPSSSLGTQTYICNVNHKPSNTKVDKKVEPKSCDKTHTCPPCPAPEAAGAPSVFLFPPKPKDTLMISRTPEVTCVVVDVSHEDPEVKFNWYVDGVEVHNAKTKPREEQYNSTYRVVSVLTVLHQDWLNGKEYKCKVSNKALPAPIEKTISKAKGQPREPQVYTLPPSREEMTKNQVSLTCLVKGFYPSDIAVEWESNGQPENNYKTTPPVLDSDGSFFLYSKLTVDKSRWQQGNVFSCSVMHEALHNHYTQKSLSLSPGGGGGSGGGGSGGGGSEVQLLESGGGLVQPGGSLRLSCAASGFTFSDFAMHWVRQAPGKGLEWISYISGDSGYTNYADSVKGRFTISRDNSKNTLYLQMNSLRAEDTAVYYCARDRPYYYYMDVWGKGTTVTVSSGGGGSGGGGSGGGGSGGGGSDIQMTQSPSSLSASVGDRVTITCRASQSVSRSLAWYQQKPGKAPKLLIYAASSLQSGVPSRFSGSGSGTDFTLTISSLQPEDFATYYCQQYKSYPVTFGQGTKVEIK
light: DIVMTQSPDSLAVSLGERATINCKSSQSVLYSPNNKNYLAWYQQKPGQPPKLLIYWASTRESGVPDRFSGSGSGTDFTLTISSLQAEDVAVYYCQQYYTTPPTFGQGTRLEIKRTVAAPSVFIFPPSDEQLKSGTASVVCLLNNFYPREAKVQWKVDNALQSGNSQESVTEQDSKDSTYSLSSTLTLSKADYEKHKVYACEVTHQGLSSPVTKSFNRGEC
B16: PMAB38 (bispecific antibody, human IgG1, kappa)
heavy: B15 heavy with A496W, S634Y
light: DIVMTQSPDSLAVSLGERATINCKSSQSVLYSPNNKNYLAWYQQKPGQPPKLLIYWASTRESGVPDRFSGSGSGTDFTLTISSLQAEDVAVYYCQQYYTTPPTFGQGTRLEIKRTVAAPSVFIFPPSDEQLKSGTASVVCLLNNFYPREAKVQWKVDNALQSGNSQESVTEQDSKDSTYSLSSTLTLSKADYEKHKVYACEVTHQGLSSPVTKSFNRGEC
B17: PMAB39 (bispecific antibody, human IgG1, kappa)
heavy: B15 heavy with A496W, A636N
light: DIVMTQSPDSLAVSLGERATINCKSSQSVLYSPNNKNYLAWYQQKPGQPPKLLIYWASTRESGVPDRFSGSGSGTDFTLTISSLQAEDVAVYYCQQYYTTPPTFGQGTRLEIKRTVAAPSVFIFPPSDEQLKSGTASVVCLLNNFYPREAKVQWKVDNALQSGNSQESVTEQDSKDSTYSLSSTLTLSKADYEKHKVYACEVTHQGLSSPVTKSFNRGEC
B18: PMAB43 (bispecific antibody, human IgG1, kappa)
heavy: B15 heavy with A496W, V698R
light: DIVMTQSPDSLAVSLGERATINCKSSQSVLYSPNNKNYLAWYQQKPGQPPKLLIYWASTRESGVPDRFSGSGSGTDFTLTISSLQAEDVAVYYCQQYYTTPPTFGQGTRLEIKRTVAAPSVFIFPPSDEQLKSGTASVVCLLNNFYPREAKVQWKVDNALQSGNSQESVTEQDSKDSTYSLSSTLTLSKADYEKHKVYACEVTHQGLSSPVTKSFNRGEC

Biological target: T1, Human MAdCAM
Assay: BLI Octet, AHC capture

Binder | Kd [nM] | koff [s⁻¹] | kon [M⁻¹ s⁻¹] | binding result | fold reduction of affinity vs PRNT1 [fold]
B1 | 20 | 0.0113 | 564000 | – | –
B2 | – | – | – | no binding (tested: 200 nM) | –
B3 | 203 | 0.082 | 404000 | – | –
B4 | 68.8 | 0.0259 | 376000 | – | –
B5 | 362 | 0.0599 | 166000 | – | 20
B6 | – | – | – | no binding (tested: 150 nM) | –
B7 | 119 | 0.0267 | 226000 | – | 10
B8 | 22.2 | 0.00897 | 405000 | – | –
B9 | 563 | 0.0818 | 145000 | – | 40
B10 | 21.8 | 0.00969 | 445000 | – | –
B11 | 22.6 | 0.0106 | 471000 | – | –
B12 | 218 | 0.0851 | 391000 | – | –
B13 | 519 | 0.22 | 372000 | – | –
B14 | 43.8 | 0.0197 | 449000 | – | –
B15 | – | – | – | no binding (tested: 300 nM top concentration) | –
B16 | – | – | – | no binding (tested: 200 nM top concentration) | –
B17 | – | – | – | no binding (tested: 200 nM top concentration) | –
B18 | – | – | – | no binding (tested: 200 nM top concentration) | –

— patent US20240132591A1 (PANDION OPERATIONS, published 2024)
